Consider one sequence from US7851587B2, “Peptides derived from the C2 domain of epsilon PKC” (The Board of Trustees of the Leland Stanford Junior …, priority 2006, dated 2010).

Assay [1] deals with intact heart, ex vivo. The assay can be described thus: Ex vivo cardiac protection, ischemia and reperfusion in Langendorff-perfused hearts (TTC staining, CPK release). The arrangement: species or system Wistar rats.
Assay [2] deals with T1, δPKC (Mus musculus, UniProt P28867).
T1 construct: from tissue; host or cells: mouse heart
The assay can be described thus: In vivo PKC translocation in hearts after intraperitoneal injection (immunoblot). Further details: species or system mice. Particulars: particulate fraction of mouse hearts, 15 minutes following IP injection of 20 nmol peptide; relative to control TAT peptide. The procedure: (§1) In a further in vivo study, peptide activity and selectivity were examined using representative peptides injected into mice via intraperitoneal (IP) injection, and the amount of εPKC, δPKC, αPKC, and ζPKC translocation in hearts was determined. These four PKC isozymes represent each of the three major sub-families of PKC. In particular, εPKC and δPKC are members of the novel PKC family (calcium insensitive, diacylglycerol sensitive), αPKC is a classical PKC (calcium and diacylglycerol sensitive), and ζPKC is an atypical PKC (calcium and diacylglycerol insensitive).
(§2) Levels of εPKC, δPKC, αPKC, and ζPKC in the particulate fraction of mouse hearts were assayed by immunoblot 15 minutes following IP injection of 20 nmol each peptides (FIGS. 5A-5D). The accompanying graphs show quantitation based on two experiments, calculated as fold increase (+/−standard error) in the particulate fraction/total fraction, normalized to the actin loading control, and relative to the control TAT peptide. […] Since peptides 11 and 13 caused MARCKS phosphorylation in myocytes from the εPKC knockout mice (FIG. 3), it is concluded that they activated several PKC isozymes.
(§3) Isozyme Selectivity In Vivo—To determine that activator peptides causing MARCKS phosphorylation and decreasing ischemia-reperfusion damage in heart also induce εPKC translocation in vivo, we injected the respective peptides at 20 nmol in 200 μl saline into the peritoneum of 15-20 g mice, as previously reported (48). Fifteen minutes later, the mice were sacrificed and heart and brain were collected. Soluble and particulate fractions from mouse tissue were prepared as previously described (48). ε, ζ and δPKC translocation were determined by Western blot analysis using selective anti-PKC antibodies from Santa Cruz Biotechnology, Santa Cruz, Calif. and used at 1:500 dilution. Sarcomeric actin (1:1000, Sigma) was used as a loading control for all fractions.
On the technique in general: A western blot detects proteins with antibodies after separation by electrophoresis.

Assay [3] deals with T2, εPKC (Mus musculus, UniProt P16054).
T2 construct: from tissue; host or cells: mouse heart
T2 sequence (P16054 1-737): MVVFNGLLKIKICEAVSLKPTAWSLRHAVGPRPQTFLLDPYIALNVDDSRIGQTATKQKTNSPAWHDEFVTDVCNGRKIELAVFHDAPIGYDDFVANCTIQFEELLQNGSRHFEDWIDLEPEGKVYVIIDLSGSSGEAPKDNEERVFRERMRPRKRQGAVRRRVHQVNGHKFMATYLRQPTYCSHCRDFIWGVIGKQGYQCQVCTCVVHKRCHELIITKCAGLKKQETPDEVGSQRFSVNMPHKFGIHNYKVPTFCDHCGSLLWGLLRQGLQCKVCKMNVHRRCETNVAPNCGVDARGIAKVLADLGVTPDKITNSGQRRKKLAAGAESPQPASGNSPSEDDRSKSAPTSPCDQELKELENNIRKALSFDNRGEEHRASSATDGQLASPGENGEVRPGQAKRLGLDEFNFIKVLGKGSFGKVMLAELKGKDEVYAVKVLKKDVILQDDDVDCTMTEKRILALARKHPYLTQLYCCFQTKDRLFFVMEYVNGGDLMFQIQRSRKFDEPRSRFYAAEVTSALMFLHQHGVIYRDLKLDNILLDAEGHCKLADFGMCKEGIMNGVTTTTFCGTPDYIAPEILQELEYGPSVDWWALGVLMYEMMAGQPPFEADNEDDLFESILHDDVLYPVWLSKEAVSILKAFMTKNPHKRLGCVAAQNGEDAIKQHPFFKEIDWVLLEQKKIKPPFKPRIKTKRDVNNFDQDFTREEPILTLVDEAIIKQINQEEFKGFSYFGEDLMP
The description is as above. Further details: species or system mice. Particulars: particulate fraction of mouse hearts, 15 minutes following IP injection of 20 nmol peptide; relative to control TAT peptide. Here is the method: as §1, §2, §3

The target of assay [4] is T3, αPKC (Mus musculus, UniProt P20444).
T3 construct: from tissue; host or cells: mouse heart
The assay is described as above. Further details: species or system mice. As to conditions: particulate fraction of mouse hearts, 15 minutes following IP injection of 20 nmol peptide; relative to control TAT peptide. Here is the method:
as §1, §2, §3

Assay [5] deals with PKC. Kind of assay: MARCKS phosphorylation in primary skeletal muscle cells from εPKC knockout mice (Western blot). As to conditions: primary mouse muscle cells from εPKC knock-out mice; 1 μM peptide for 15 minutes.

“Also recorded” adds a separate entry of the source. Ends that are not written are not given here.

T1 sequence (P28867 whole entry): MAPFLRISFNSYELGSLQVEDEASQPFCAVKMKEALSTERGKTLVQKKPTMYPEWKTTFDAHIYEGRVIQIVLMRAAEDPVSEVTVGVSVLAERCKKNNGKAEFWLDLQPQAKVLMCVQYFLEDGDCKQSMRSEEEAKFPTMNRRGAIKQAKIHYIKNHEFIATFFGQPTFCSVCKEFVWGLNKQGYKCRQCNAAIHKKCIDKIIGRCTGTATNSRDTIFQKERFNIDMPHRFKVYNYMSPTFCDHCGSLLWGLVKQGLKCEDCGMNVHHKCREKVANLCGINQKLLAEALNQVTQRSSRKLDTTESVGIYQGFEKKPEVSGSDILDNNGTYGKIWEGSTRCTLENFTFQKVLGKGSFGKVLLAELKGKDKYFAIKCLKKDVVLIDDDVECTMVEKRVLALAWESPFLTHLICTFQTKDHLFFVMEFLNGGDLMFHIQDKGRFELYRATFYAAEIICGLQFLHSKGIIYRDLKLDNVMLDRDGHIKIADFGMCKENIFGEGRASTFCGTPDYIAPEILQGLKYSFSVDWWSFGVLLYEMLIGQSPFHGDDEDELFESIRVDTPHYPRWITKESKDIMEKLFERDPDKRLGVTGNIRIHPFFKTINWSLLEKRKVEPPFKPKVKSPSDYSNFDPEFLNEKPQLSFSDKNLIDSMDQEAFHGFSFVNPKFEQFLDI

In the case of “CHFEDWID (not fully specified; also: TAT47-57 carrier linked via Cys disulfide) [Peptide 11]”, the Cardioprotective ex vivo entry in assay [1] is “not cardioprotective and no”. Also, the “translocation of δPKC in hearts in vivo” value in assay [2] is “substantial translocation”. The “translocation of εPKC in hearts in vivo” value in assay [3] is “substantial translocation”. Also, the “translocation of αPKC in hearts in vivo” value in assay [4] is “substantial translocation”. Moreover, in assay [5], the “MARCKS phosphorylation in εKO Cells” value is given as “increased MARCKS phosphorylation; also recorded: activator”.
